Data: patent publication EP4725501A1 (Staidson (Beijing) Biopharmaceuticals Co., Ltd., dated 2026)
Where a chain is given by its changes, count along the chain named. Each block holds one binder with its values, some of them ahead of it.

What was measured:
[1] = target: T1, human MASP3-His (human, UniProt P48740-2 20-728); assay: cell-based or functional assay
T1 sequence (looked up): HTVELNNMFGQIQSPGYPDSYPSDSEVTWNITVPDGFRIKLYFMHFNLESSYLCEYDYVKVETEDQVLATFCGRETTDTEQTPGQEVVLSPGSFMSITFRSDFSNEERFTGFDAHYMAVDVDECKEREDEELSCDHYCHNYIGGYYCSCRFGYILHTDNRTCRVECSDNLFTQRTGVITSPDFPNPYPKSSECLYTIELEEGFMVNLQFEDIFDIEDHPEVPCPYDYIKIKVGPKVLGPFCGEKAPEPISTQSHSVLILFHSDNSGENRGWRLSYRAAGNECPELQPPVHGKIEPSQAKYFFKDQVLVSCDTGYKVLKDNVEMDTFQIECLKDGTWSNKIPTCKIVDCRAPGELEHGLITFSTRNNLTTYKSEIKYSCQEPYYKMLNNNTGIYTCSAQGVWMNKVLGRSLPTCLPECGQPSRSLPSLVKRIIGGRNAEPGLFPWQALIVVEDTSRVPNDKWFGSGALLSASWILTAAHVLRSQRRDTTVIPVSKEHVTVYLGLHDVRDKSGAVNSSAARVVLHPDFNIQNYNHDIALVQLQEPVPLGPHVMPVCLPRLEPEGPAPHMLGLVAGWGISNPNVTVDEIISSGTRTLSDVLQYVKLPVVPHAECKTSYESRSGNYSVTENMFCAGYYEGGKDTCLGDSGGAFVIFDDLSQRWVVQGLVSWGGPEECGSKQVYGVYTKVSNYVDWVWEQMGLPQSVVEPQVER

[2] = target: T2, MASP3 in Factor D depleted human plasma (human, UniProt P48740-2 20-728); assay: cell-based or functional assay
T2 sequence (looked up): T1 sequence (looked up)

IC50 (nM), inhibition of MASP3 enzyme activity (fluorescent tripeptide cleavage) [1]: 31.2 nM
B1: M3-K1-2 (antibody, V domains shown)
VH: QVQLVQSGAEVKKPGASVKVSCKASGYTFTGKWIEWVRQAPGQGLEWIGEILPGSGSTDYNERFKDRATFTADTSTSTAYMELSSLRSEDTAVYYCVRSEDLWGQGTLVTVSS
VL: DIVMTQSPDSLAVSLGERATINCKSSQSLLNSVTRKTYLAWYQQKPGQSPKLLIYWASTRESGVPDRFSGSGSGTDFTLTISSLQAEDVAVYYCKQSYTLPTFGGGTKVEIK

IC50 (nM), inhibition of MASP3 enzyme activity (fluorescent tripeptide cleavage) [1]: 33.7 nM
B2: M3-K2-9 (antibody, V domains shown)
VH: B1 VH with I48M
VL: B1 VL with S28N, L30F, V33R, T37N, Y42F, T99I, L100P, P101F

IC50 (nM), inhibition of MASP3 enzyme activity (fluorescent tripeptide cleavage) [1]: 29.9 nM
B3: M3-K1-4 (antibody, V domains shown)
VH: B1 VH with I48M
VL: B1 VL

IC50 (nM), inhibition of MASP3 enzyme activity (fluorescent tripeptide cleavage) [1]: 31.5 nM
B4: M3-K1-1 (antibody, V domains shown)
VH: B1 VH
VL: B1 VL with S49P

IC50 (nM), inhibition of MASP3 enzyme activity (fluorescent tripeptide cleavage) [1]: 24.2 nM
B5: M3-K1-3 (antibody, V domains shown)
VH: B1 VH with I48M
VL: B1 VL with S49P

B6: M3-K2-5 (antibody, V domains shown)
VH: B1 VH with I48M, A68V, A79V
VL: EIVLTQSPATLSVSPGERATLSCKSSQNLFNSRTRKNYLAWFQQKPGQSPRLLIYWASTRESGIPARFSGSGSGTEFTLTISSLQSEDFAVYYCKQSYIPFTFGGGTKVEIK
Inhibit hemolysis IC50 [2]: 3.41 nM

IC50 (nM), inhibition of MASP3 enzyme activity (fluorescent tripeptide cleavage) [1]: 28.2 nM
B7: M3-K1-6 (antibody, V domains shown)
VH: B1 VH with I48M, A68V, A79V
VL: B1 VL

IC50 (nM), inhibition of MASP3 enzyme activity (fluorescent tripeptide cleavage) [1]: 25.2 nM
B8: M3-K2-7 (antibody, V domains shown)
VH: B1 VH
VL: B1 VL with S28N, L30F, V33R, T37N, Y42F, T99I, L100P, P101F

IC50 (nM), inhibition of MASP3 enzyme activity (fluorescent tripeptide cleavage) [1]: 37 nM
B9: M3-K2-10 (antibody, V domains shown)
VH: B1 VH with I48M, A68V, A79V
VL: B1 VL with M4L, S28N, L30F, V33R, T37N, Y42F, T99I, L100P, P101F

IC50 (nM), inhibition of MASP3 enzyme activity (fluorescent tripeptide cleavage) [1]: 27.9 nM
B10: M3-K1-5 (antibody, V domains shown)
VH: B1 VH with I48M, A68V, A79V
VL: B1 VL with S49P
